Results from patent publication US20090156496A1, “METHODS AND COMPOSITIONS FOR TREATING AND PREVENTING PERIPHERAL NERVE DAMAGE” (CHILDREN'S MEDICAL CENTER CORPORATION, INC., priority 2006, published 2009).
“Also recorded” adds a separate entry of the source.

Experiments:
RGCs [1] = test: axon outgrowth in primary adult retinal cultures; format: cell-based, rat
Description: Protein A beads (Sigma) were incubated with either rabbit anti-OM antiserum (Swant) or normal rabbit serum (Invitrogen) for 16 h at 4° C. After extensive rinsing, beads with adsorbed IgGs were mixed with MCM (1 ml 10× concentrate, collected 8 h after zymosan treatment) for 24 h at 4° C. and then pelleted down by centrifugation. We tested 5 μl of the supernatants or untreated MCM for oncomodulin by western blotting. Bioactivity of immune-depleted and control MCM was tested in dissociated RGC cultures as described below at a 1:4 dilution, a concentration found to give a near-maximal response.
(§1) Adult rat retinal cultures were prepared as described^21. […] One week later, retinas were dissected, dissociated, and the cells plated in defined, serum-free medium. Axon growth (% RGCs extending axons ≧30 μm, ≧70 μm or ≧140 μm in length) was evaluated after 3 d in quadruplicate samples in a blinded fashion. All experiments were repeated at least three separate times. In some instances, cells were immunostained with GAP-43 antibody (1:500, Chemicon).

RGCs [2] = test: RGC survival in primary retinal cultures; format: cell-based, rat; settings: retinal culture
Description: as §1

RGCs [3] = test: ligand binding assay with AP-oncomodulin fusion proteins on immunopurified RGCs; design: species or system rat
Description: Adult rat retinal cells were dissociated as above and then isolated by immunopanning^31,46 using antibody MAC1 followed by an antibody to Thy1 (Chemicon). Purity was ˜98% based upon counting Fluorogold-labeled versus total cells. RGCs, treated with or without forskolin, were lightly fixed after 14-16 h in culture (4% paraformaldehyde (PFA), 6 min) before binding assays.
Binding assays were carried out as described^48 with slight modifications. Briefly, lightly fixed, immunopurified RGCs were incubated with AP-OM or AP (37° C., 24 h).
After extensive rinsing, cells were fixed again, heated (65° C., 90 min) to destroy endogenous AP and incubated with nitro blue tetrazolium chloride/5-bromo-4-chloro-3-indoyl phosphate toluidine salt (BCIPINBT). In some instances, AP-OM or AP (control), with or without forskolin, was added to the cultures before the initial fixation. Absorbance was measured with Image J software (US National Institutes of Health) and corrected by subtracting the level of AP binding. Binding curves and Scatchard plots were generated using Prism software. For displacement studies, varying concentrations of unlabeled oncomodulin were added to cultures after the equilibrium binding of 40 mM AP-OM at 37° C. for 24 h.

optic nerve = optic nerve regeneration in vivo after nerve crush, intraocular PLGA microspheres; design: species or system rat; settings: 2 weeks, agent by itself
Description: Microspheres were prepared from lyophilized oncomodulin or sp-8-Br-cAMPs (Sigma) with PLGA using the solvent evaporation method of single emulsion^49. To measure the rate of protein release in vitro, 10 mg of oncomodulin-containing beads were incubated in phosphate-buffered saline (PBS; 37° C.). Supernatants were collected every 3 d and analyzed on western blots.
Optic nerve surgery was carried out on male Fisher rats (200-250 g) as described^18. Three days after nerve crush, rats received intraocular injections of blank microspheres or microspheres containing oncomodulin, sp-8-Br-cAMPs or both, in 10 μl saline after the same fluid volume was withdrawn from the eye (n=8-12 per group). Rats were killed 2 weeks later and their retinas, with optic nerves attached, were prepared as described^18,21. Axon growth was evaluated by GAP-43 immunostaining in the optic nerve at distances of 500 μm and 1 mm from the injury site^18,21. The length of the longest axon was measured in each case and averaged across all cases within each group.

P-CREB = P-CREB immunostaining in RGCs after intravitreous injection; format: in vivo, rat; settings: 2 h after intravitreous injection, 1 μg μl^−1, 5 μl
Description: To investigate the immediate effects of oncomodulin in vivo, rats received an intravitreous injection of the protein (1 μg μl^−1, 5 μl volume, n=6) and were killed 2 h later. Retinal sections were immunostained to detect the phosphorylated form of the transcriptional activator CREB (antibody to P-CREB, 1:100, Cell Signaling Technology). Fluorescent photomicrographs were taken 2 mm from the optic nerve head.

DRG neurons [4] = test: neurite outgrowth of DRG neurons cultured after intraganglionic injection in vivo; format: cell-based, rat
Description: (§2) L4-L5 DRGs from adult male Sprague-Dawley rats (250-300 g) were injected with 5 μl of saline or oncomodulin (200 ng μl^−1). After 7 d, injected ganglia were dissected and single-cell suspensions were prepared as described^50. Cells were cultured on laminin (Sigma) with or without CSPGs (Chemicon) for 20 h or 40 h. In some cases, chondroitinase ABC (0.5 U ml^−1, Seikagaku) was added. Neurite outgrowth was visualized by Tuj1 antibody to class III β-tubulin (1:5,000, Babco) and quantified in quadruplicate samples by a blinded observer. In other studies, L4-L5 DRG neurons were cultured in the presence of absence of oncomodulin, mannose and/or forskolin in RPMI-1640 to limit spontaneous outgrowth. Cells were fixed and immunostained after 3 d and evaluated for outgrowth.

DRG neurons [5] = test: neurite outgrowth of naive DRG neurons in culture; format: cell-based, rat; settings: 3 d culture
Description: as §2

[6] = in the absence of forskolin and mannose
[7] = in the presence of forskolin and mannose, 3 d, BDNF 50 ng ml^−1, CNTF 10 ng ml^−1, GDNF 50 ng ml^−1

B1: oncomodulin: 11.7-kDa Ca2+-binding protein secreted by macrophages; recombinant rat oncomodulin expressed in Escherichia coli (protein)
chain: SITDILSAEDIAAALQECQDPDTFEPQKFFQTSGLSKMSASQVKDIFRFIDNDQSGYLDGDELKYFLQKFQSDARELTESETKSLMDAADNDGDGKIGADEFQEMVHS
EC50 (RGCs [1]; RGCs, forskolin and mannose present, read-out: effective concentration for half-maximum response (EC50), axon outgrowth): ~3.8 nM
axon outgrowth from RGCs in culture (RGCs [1]; [6]): Neither oncomodulin nor any of the other factors stimulated outgrowth
axon outgrowth from RGCs in culture (RGCs [1]; [7]): nearly doubled the amount of outgrowth
RGC survival (RGCs [2]): Neither oncomodulin nor any other factor enhanced RGC survival above baseline
concentration at which binding saturated (RGCs [3]; AP-OM binding to RGCs): greater than 100 nM
Kd (RGCs [3]; AP-OM, forskolin-treated RGCs, Scatchard plot, read-out: dissociation constant (Kd), binding to RGCs): 28 ± 5 nM
IC50 (RGCs [3]; displacement of AP-OM by unlabeled oncomodulin, read-out: IC50, reversibility of binding to RGCs): ~30 nM
displacement of AP-OM from RGCs (RGCs [3]; excess unlabeled competitor (100-fold)): displaced AP-OM from RGCs
axon regeneration in optic nerve (optic nerve): had no effect
level of P-CREB in RGCs (P-CREB): markedly increased
DRG neurite outgrowth on nonpermissive substrate (DRG neurons [4]; CSPG substrate): promoted some outgrowth; also recorded: stimulated some outgrowth
DRG neurite outgrowth on permissive substrate (DRG neurons [4]; exposed in vivo 1 week, poly-D-lysine+laminin, vs vehicle): considerably greater outgrowth
outgrowth of previously untreated DRG neurons (DRG neurons [5]): acts on previously untreated DRG neurons

B2: AP-OM: alkaline phosphatase (AP)-oncomodulin fusion protein (protein)
chain: MSITDILSAEDIAAALQECQDPDTFEPQKFFQTSGLSKMSASQVKDIFRFIDNDQSGYLDGDELKYFLQKFQSDARELTESETKSLMDAADNDGDGKIGADEFQEMVHS
modifications: left off: large carriers; small tags and cut ends
notes: alkaline phosphatase (AP)-oncomodulin fusion protein
binding to RGCs (RGCs [3]; [cAMP]i elevated with forskolin): bound strongly
binding to RGCs (RGCs [3]; basal conditions (no forskolin)): Neither AP-OM nor AP showed appreciable binding
binding to RGCs (RGCs [3]; untreated RGCs permeabilized after light fixation, no forskolin): bound even without previous forskolin treatment

B3: CNTF: ciliary neurotrophic factor (protein, UniProt P26441 1-200, looked up)
Ciliary neurotrophic factor: MAFTEHSPLTPHRRDLCSRSIWLARKIRSDLTALTESYVKHQGLNKNINLDSADGMPVASTDQWSELTEAERLQENLQAYRTFHVLLARLLEDQQVHFTPTEGDFHQAIHTLLLQVAAFAYQIEELMILLEYKIPRNEADGMPINVGDGGLFEKKLWGLKVLQELSQWTVRSIHDLRFISSHQTGIPARGSHYIANNKKM
axon outgrowth from RGCs in culture (RGCs [1]; [6]): Neither oncomodulin nor any of the other factors stimulated outgrowth
axon outgrowth from RGCs in culture (RGCs [1]; [7]): increased axon growth

B4: BDNF: brain-derived neurotrophic factor (protein, UniProt P23560 19-247, looked up)
Neurotrophic factor BDNF …: APMKEANIRGQGGLAYPGVRTHGTLESVNGPKAGSRGLTSLADTFEHVIEELLDEDQKVRPNEENNKDADLYTSRVMLSSQVPLEPPLLFLLEEYKNYLDAANMSMRVRRHSDPARRGELSVCDSISEWVTAADKKTAVDMSGGTVTVLEKVPVSKGQLKQYFYETKCNPMGYTKEGCRGIDKRHWNSQCRTTQSYVRALTMDSKKRIGWRFIRIDTSCVCTLTIKRGR
axon outgrowth from RGCs in culture (RGCs [1]; [6]): Neither oncomodulin nor any of the other factors stimulated outgrowth
axon outgrowth from RGCs in culture (RGCs [1]; [7]): ineffective
